This is an account of results in patent publication US20060024786A1, “WASP and N-WASP constructs and methods of expressing such constructs” (Cytokinetics, Inc., priority 2004, published 2006).

A short description of data set [1]: Solubility of purified full-length protein. Conditions: expressed in 293 cells, TAP-tag purification. The format is physicochemical.
In data set [2] the target is T1, Arp2/3 complex.
T1 construct: prepared from an Arp2/3 source such as human platelets; from tissue; host or cells: cell extract, e.g. human platelets
The experiment in a line: Arp2/3-mediated actin polymerization stimulated by WASP/N-WASP proteins. The format is biochemical, human. Conditions: for Activate Arp2/3?: Table 2. How it is done:
Samples containing candidate agents (individually or as mixtures) are placed into wells on a multi-well plate. Mix 1 is added to each of the wells and mixed with the candidate agent. A sample of Mix 2 is then introduced into each well and the resulting mixture thoroughly mixed. Typically, Mix 1 and Mix 2 are mixed in 1:1 ratio (e.g., 50 μl each of Mix 1 and Mix 2).
Actin polymerization is measured as a function of time by exciting pyrene at 365 nm and by detecting an increase in fluorescence emission at 407 nm. The change in fluorescence over time is utilized to determine a fluorescence parameter (e.g., maximal velocity, time to half maximal fluorescence intensity or area under the curve of a plot of fluorescence versus time).
In a second set of experiments, the ability of various truncated forms of WASP were compared to the activity of the full-length protein. The polymerization assays were conducted in the presence of 500 nM Cdc42, 2.5 nm purified Arp2/3 complex and 3.5 μM actin. FL-WASP, 105 WASP and the VCA (see Example 7) domain were tested. The results of these trials were plotted to obtain EC50 values. The results are provided in FIG. 6 and in the chart below.

For data set [3], the system named is Cdc42, PIP2, Nck and Rac1. The experiment in a line: Regulation of WASP/N-WASP proteins by upstream regulators. As to conditions: Table 2. The format is biochemical. The source says:
(§1) A second class of WASP and N-WASP proteins are those in which the WH-1 and PolyPro region have been at least partially removed. Specific examples of WASP and N-WASP proteins lacking at least a part or all of the WH1 and PolyPro regions include, but are not limited to, 213 miniWASP, 199 miniWASP and 105 miniWASP (see, FIGS. 3A and 3B). These three proteins each lack some or all of the WH-1 region, and the entire PolyPro region (approximately residues 309-414 of SEQ ID NO:2). The 213 miniWASP protein thus includes, for example, amino acid residues 213-308 and 415-501 from the full length WASP sequence (SEQ ID NO:2). 199 miniWASP includes residues 199-308 and 415-501 of SEQ ID NO:2). 105 miniWASP includes residues 105-308 and 415-501 of SEQ ID NO:2).
(§2) A fourth class of WASP and N-WASP proteins that are provided are deletion mutants in which the PolyPro region is maintained but an N-terminal region (e.g., WH1 domain) is at least partially removed. Some proteins in this class are ones that include the B, CRIB/GBD, PolyPro and VCA domains but in which some or all of the WH1 has been removed. One specific example is 98N-WASP, which includes amino acids 98-501 of SEQ ID NO:4 (also assigned SEQ ID NO:12). Another specific example is the 105 WASP protein, which includes amino acids 105-501 of SEQ ID NO:10 (see FIG. 3A and 3B). […] They can also activate actin nucleation by Arp2/3.

Data set [4] has as its target T2, Cdc42, PIP2, Nck and Rac1 (Homo sapiens, UniProt P60953, G12V).
T2 construct: made in house; host or cells: E. coli BL21(DE3) or BL21 STAR
The description is as above. The format is biochemical. Conditions: Cdc42 binds and activates the construct, which then activates Arp2/3 nucleation.
Excerpt: as §1, §2

T2 sequence (P60953 2-191 isoform P60953-1 G12V): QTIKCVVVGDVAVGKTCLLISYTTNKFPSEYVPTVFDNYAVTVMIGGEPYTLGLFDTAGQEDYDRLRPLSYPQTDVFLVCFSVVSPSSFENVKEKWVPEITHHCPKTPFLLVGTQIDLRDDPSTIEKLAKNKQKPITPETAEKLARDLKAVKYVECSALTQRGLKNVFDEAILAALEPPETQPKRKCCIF

B1: FL-N-WASP: full-length N-WASP, SEQ ID NO:4; expressed TAP-tagged in human 293 cells (protein, listed as Homo sapiens)
chain: MSSVQQQPPPPRRVTNVGSLLLTPQENESLFTFLGKKCVTMSSAVVQLYAADRNCMWSKKCSGVACLVKDNPQRSYFLRIFDIKDGKLLWEQELYNNFVYNSPRGYFHTFAGDTCQVALNFANEEEAKKFRKAVTDLLGRRQRKSEKRRDPPNGPNLPMATVDIKNPEITTNRFYGPQVNNISHTKEKKKGKAKKKRLTKADIGTPSNFQHIGHVGWDPNTGFDLNNLDPELKNLFDMCGISEAQLKDRETSKVIYDFIEKTGGVEAVKNELRRQAPPPPPPSRGGPPPPPPPPHNSGPPPPPARGRGAPPPPPSRAPTAAPPPPPPSRPSVAVPPPPPNRMYPPPPPALPSSAPSGPPPPPPSVLGVGPVAPPPPPPPPPPPGPPPPPGLPSDGDHQVPTTAGNKAALLDQIREGAQLKKVEQNSRPVSCSGRDALLDQIRQGIQLKSVADGQESTPPTPAPTSGIVGALMEVMQKRSKAIHSSDEDEDEDDEEDFEDDDEWED
modifications: TAP tag; (1)..(505) FL-N-WASP
notes: expressed TAP-tagged in human 293 cells
Consider B1, for which the “solubility of purified protein” value in data set [1] is “completely soluble”. The “stimulation of actin polymerization by the protein by itself” value in data set [2] (without upstream regulators, FIG. 5) was “only weakly stimulate actin polymerization”.

B2: 105WASP: WASP deletion mutant lacking the WH1 domain, amino acids 105-501; SEQ ID NO:10 (protein, listed as Homo sapiens)
chain: LVYSTPTPFFHTFAGDDCQAGLNFADEDEAQAFRALVQEKIQKRNQRQSGDRRQLPPPPTPANEERRGGLPPLPLHPGGDQGGPPVGPLSLGLATVDIQNPDITSSRYRGLPAPGPSPADKKRSGKKKISKADIGAPSGFKHVSHVGWDPQNGFDVNNLDPDLRSLFSRAGISEAQLTDAETSKLIYDFIEDQGGLEAVRQEMRRQEPLPPPPPPSRGGNQLPRPPIVGGNKGRSGPLPPVPLGIAPPPPTPRGPPPPGRGGPPPPPPPATGRSGPLPPPPPGAGGPPMPPPPPPPPPPPSSGNGPAPPPLPPALVPAGGLAPGGGRGALLDQIRQGIQLNKTPGAPESSALQPPPQSSEGLVGALMHVMQKRSRAIHSSDEGEDQAGDEDEDDEWDD
modifications: (1)..(398) 105WASP
Consider B2, for which the “Activate Arp2/3?” value in data set [2] is “Yes”. Further, in data set [3], the “Regulated By Which Upstream Regulators?” value was “Cdc42, PIP2, Nck and Rac1”.

B3: 199 miniWASP: residues 199-308 and 415-501 of SEQ ID NO:2 (protein, listed as Homo sapiens)
chain: TVDIQNPDITSSRYRGLPAPGPSPADKKRSGKKKISKADIGAPSGFKHVSHVGWDPQNGFDVNNLDPDLRSLFSRAGISEAQLTDAETSKLIYDFIEDQGGLEAVRQEMRLPPALVPAGGLAPGGGRGALLDQIRQGIQLNKTPGAPESSALQPPPQSSEGLVGALMHVMQKRSRAIHSSDEGEDQAGDEDEDDEWD
modifications: (1)..(502) FL-WASP
Consider B3, for which the “regulation by Cdc42” value in data set [4] is “regulated by Cdc42”.

B4: 213 miniWASP: amino acid residues 213-308 and 415-501 of full length WASP (SEQ ID NO:2) (protein, listed as Homo sapiens)
chain: RGLPAPGPSPADKKRSGKKKISKADIGAPSGFKHVSHVGWDPQNGFDVNNLDPDLRSLFSRAGISEAQLTDAETSKLIYDFIEDQGGLEAVRQEMRLPPALVPAGGLAPGGGRGALLDQIRQGIQLNKTPGAPESSALQPPPQSSEGLVGALMHVMQKRSRAIHSSDEGEDQAGDEDEDDEWD
modifications: (1)..(502) FL-WASP
On to B4, for which the “regulation by Cdc42” value in data set [4] is given as “regulated by Cdc42”.

B5: 98 N-WASP: N-WASP deletion mutant, amino acids 98-501 of SEQ ID NO:4; SEQ ID NO:12 (protein, listed as Homo sapiens)
chain: FVYNSPRGYFHTFAGDTCQVALNFANEEEAKKFRKAVTDLLGRRQRKSEKRRDPPNGPNLPMATVDIKNPEITTNRFYGPQVNNISHTKEKKKGKAKKKRLTKADIGTPSNFQHIGHVGWDPNTGFDLNNLDPELKNLFDMCGISEAQLKDRETSKVIYDFIEKTGGVEAVKNELRRQAPPPPPPSRGGPPPPPPPPHNSGPPPPPARGRGAPPPPPSRAPTAAPPPPPPSRPSVAVPPPPPNRMYPPPPPALPSSAPSGPPPPPPSVLGVGPVAPPPPPPPPPPPGPPPPPGLPSDGDHQVPTTAGNKAALLDQIREGAQLKKVEQNSRPVSCSGRDALLDQIRQGIQLKSVADGQESTPPTPAPTSGIVGALMEVMQKRSKAIHSSDEDEDEDDEEDFEDDDEWED
modifications: (1)..(408) 98N-WASP
For the molecule B5, the “Activate Arp2/3?” value in data set [2] was “Yes”. In data set [3], the “Regulated By Which Upstream Regulators?” value is “Cdc42, PIP2, Nck and Rac1”.
